# Reference: US20200291444A1, “Macrocyclisation Tags” (Oxford University Innovation LTD, priority 2017, published 2020)
# Numbering of substitutions follows the chain as printed. Names may count otherwise.
# T1: presegetalin B1
# T1 chain: GVAWAFQAKDVENASAPV
# B1: PCY1 (Saponaria vaccaria), wild type (protein)
# chain: MATSGFSKPLHYPPVRRDETVVDDYFGVKVADPYRWLEDPNSEETKEFVDNQEKLANSVLEECELIDKFKQKIIDFVNFPRCGVPFRRANKYFHFYNSGLQAQNVFQMQDDLDGKPEVLYDPNLREGGRSGLSLYSVSEDAKYFAFGIHSGLTEWVTIKILKTEDRSYLPDTLEWVKFSPAIWTHDNKGFFYCPYPPLKEGEDHMTRSAVNQEARYHFLGTDQSEDILLWRDLENPAHHLKCQITDDGKYFLLYILDGCDDANKVYCLDLTKLPNGLESFRGREDSAPFMKLIDSFDASYTAIANDGSVFTFQTNKDAPRKKLVRVDLNNPSVWTDLVPESKKDLLESAHAVNENQLILRYLSDVKHVLEIRDLESGALQHRLPIDIGSVDGITARRRDSVVFFKFTSILTPGIVYQCDLKNDPTQLKIFRESVVPDFDRSEFEVKQVFVPSKDGTKIPIFIAARKGISLDGSHPCEMHGYGGFGINMMPTFSASRIVFLKHLGGVFCLANIRGGGEYGEEWHKAGFRDKKQNVFDDFISAAEYLISSGYTKARRVAIEGGSNGGLLVAACINQRPDLFGCAEANCGVMDMLRFHKFTLGYLWTGDYGCSDKEEEFKWLIKYSPIHNVRRPWEQPGNEETQYPATMILTADHDDRVVPLHSFKLLATMQHVLCTSLEDSPQKNPIIARIQRKAAHYGRATMTQIAEVADRYGFMAKALEAPWID
# B2: S577A: GmPOPB catalytic triad mutant (protein)
# chain: MSSVTWAPGNYPSTRRSDHVDTYQSASKGEVPVPDPYQWLEESTDEVDKWTTAQADLAQSYLDQNADIQKLAEKFRASRNYAKFSAPTLLDDGHWYWFYNRGLQSQSVLYRSKEPALPDFSKGDDNVGDVFFDPNVLAADGSAGMVLCKFSPDGKFFAYAVSHLGGDYSTIYVRSTSSPLSQASVAQGVDGRLSDEVKWFKFSTIIWTKDSKGFLYQRYPARERHEGTRSDRNAMMCYHKVGTTQEEDIIVYQDNEHPEWIYGADTSEDGKYLYLYQFKDTSKKNLLWVAELDEDGVKSGIHWRKVVNEYAADYNIITNHGSLVYIKTNLNAPQYKVITIDLSKDEPEIRDFIPEEKDAKLAQVNCANEEYFVAIYKRNVKDEIYLYSKAGVQLTRLAPDFVGAASIANRQKQTHFFLTLSGFNTPGTIARYDFTAPETQRFSILRTTKVNELDPDDFESTQVWYESKDGTKIPMFIVRHKSTKFDGTAAAIQYGYGGFATSADPFFSPIILTFLQTYGAIFAVPSIRGGGEFGEEWHKGGRRETKVNTFDDFIAAAQFLVKNKYAAPGKVAINGAANGGLLVMGSIVRAPEGTFGAAVPEGGVADLLKFHKFTGGQAWISEYGNPSIPEEFDYIYPLSPVHNVRTDKVMPATLITVNIGDGRVVPMHSFKFIATLQHNVPQNPHPLLIKIDKSWLGHGMGKPTDKNVKDAADKWGFIARALGLELKTVE
# B3: D661A: GmPOPB catalytic triad mutant (protein, UniProt H2E7Q8 1-730, looked up, variant D661A)
# Dual function …: B2 chain with A577S, D661A
# B4: H698A: GmPOPB catalytic triad mutant (protein, UniProt H2E7Q8 1-730, looked up, variant H698A)
# Dual function …: B2 chain with A577S, H698A
# Tests used:
# [1] = tested on: CC[C@H](C)[C@H](N)C(=O)N[C@@H](Cc1c[nH]c2ccccc12)C(=O)NCC(=O)N[C@H](C(=O)NCC(=O)N[C@@H](CS)C(=O)N[C@@H](CC(N)=O)C(=O)N1CCC[C@H]1C(=O)N[C@@H](Cc1c[nH]c2ccccc12)C(=O)N[C@H](C(=O)N[C@@H](C)C(=O)N[C@@H](CCC(=O)O)C(=O)N[C@@H](Cc1c[nH]cn1)C(=O)N[C@H](C(=O)N[C@@H](CC(=O)O)C(=O)N[C@@H](CCC(N)=O)C(=O)N[C@H](C(=O)N[C@@H](CC(C)C)C(=O)N[C@@H](C)C(=O)N[C@@H](CO)C(=O)NCC(=O)N[C@@H](CC(N)=O)C(=O)N[C@@H](CC(=O)O)C(=O)N[C@H](C(=O)N[C@@H](CS)C(=O)O)[C@@H](C)CC)[C@@H](C)O)C(C)C)[C@@H](C)O)[C@@H](C)CC; experiment: GmPOPB kinetic assays (LC-MS); type: biochemical, Galerina marginata; details: other: room temperature; pH 8.0
# Experimental: (§1) Comparison between distinct GmPOPB substrates was performed in 50 mM Tris pH 8.0, 50 mM NaCl, 10 mM DTT with varying concentrations of substrates at room temperature. All reactions were performed in duplicates. Reactions were started by adding GmPOPB (50 nM for GmAMA1_C6S, 1 μM for the 13mer and 14mer, and 20 nM for other substrates) to the assay mixture containing buffer and peptide. Reactions were quenched at several time points by adding 50 μL reaction mixture to 20 μL 6% TFA. Reactants were separated from products for quantification by injecting 50 μL of each quenched time point mix onto a ZORBAX SB-C18, 5 μm, 9.4×50 mm (Agilent) column connected to an Agilent LC-MS (G6130B Single Quad, Agilent Technologies). Reactants were separated from products using a gradient from H2O containing 0.1% TFA or 0.1% formic acid and 5% acetonitrile to 50% acetonitrile, at 1.5 ml/min for 8 min. Peaks with ultra violet (UV) absorbance at 220 and 280 nm were integrated, the area of peaks corresponding to reactant and products was used to calculate the percentage of product formed after a correction for differences in the extinction coefficient of each peptide was applied (ε280-25mer=11,000M-1 cm-1, ε220-25mer=46,000M-1 cm-1, ε280-cyclic=5500M-1 cm-1, ε220-cyclic=34,000M-1 cm-1, and ε280-tail=5500M-1 cm-1). The sum of product+substrate was assumed equal to the total initial amount of substrate, product converted from % to concentration. This value was divided by concentration of enzyme present to yield v/Et (min-1). When enzyme mutants and peptides containing alanine in the core region were tested for activity, higher concentrations 5 μM enzyme and 100 μM substrate were incubated for 1 and 18 h at room temperature. For progress curves with the 35mer substrate, measurements were triplicate and quantification relied on ion counts from mass spectrometry. […] Authentic macrocyclic peptide was quantified by UV absorbance. Data showing products formed after 1 and 16 h with truncated peptides were performed twice. […] Kinetic data were fitted to a Michaelis-Menten equation using GraphPad Prism, and values reported are average and standard error of the mean.
# presegetalin B1 = molecular target: T1, presegetalin B1
# [2] = tested on: 25mer and 35mer substrates; experiment: Activity of GmPOPB mutants with 25mer and 35mer substrates; type: biochemical, Galerina marginata; details: 5 μM GmPOPB, 24 h (16 h elsewhere in the source)
# Experimental: as §1, with “Reactions were started by adding GmPOPB (50 nM for GmAMA1_C6S, 1 μM for the 13mer and 14mer, and 20 nM for other substrates) to the assay mixture containing buffer and peptide.” left out, “When enzyme mutants and peptides containing alanine in the core region were tested for activity, higher concentrations 5 μM enzyme and 100 μM substrate were incubated for 1 and 18 h at room temperature.” left out, “mean. […]” for “mean.”
# To study other residues involved in hydrolysis and macrocyclisation, additional mutants H698N, R663A, R663Q, R663K, and W695Δ (deletion) were generated. […] H698N was insoluble and not evaluated. […]
molecule,measurement,setting,value
GmPOPB (Galerina marginata CBS 339.88),Km,[1],50 µM
same,kcat,[1],0.3 s⁻¹
B1,"Km (column head printed as 'Kin (µM)'), single injection kinetic ITC",presegetalin B1,0.25 µM
same,"Km (column head printed as 'Kin (µM)'), steady-state kinetics, LC/MS (UV280 nM)",presegetalin B1,0.45 µM
B2,activity of GmPOPB mutant (in words),[2],inactive
B3,activity of GmPOPB mutant (in words),[2],inactive
B4,activity of GmPOPB mutant (in words),[2],inactive
